{"source": "paper PMC9602545", "about": "“TcMYB8, a R3-MYB Transcription Factor, Positively Regulates Pyrethrin Biosynthesis in Tanacetum cinerariifolium”", "biological_target": "TcMYB8 (Tanacetum cinerariifolium (clone W99), UniProt A0A9Y1M041 1-217)", "sequence (A0A9Y1M041 entry or part of it)": "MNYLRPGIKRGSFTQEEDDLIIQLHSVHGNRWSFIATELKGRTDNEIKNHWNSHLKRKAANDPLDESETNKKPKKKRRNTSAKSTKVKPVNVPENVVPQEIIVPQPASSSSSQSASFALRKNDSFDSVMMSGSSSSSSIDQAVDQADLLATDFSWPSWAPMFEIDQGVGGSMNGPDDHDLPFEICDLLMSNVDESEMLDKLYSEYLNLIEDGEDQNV", "test": "EMSA; labeled probe 10 uM; EMSA with 10 uM FAM probe; buffer, salt, pH and temperature not stated", "settings": "protein: recombinant; tags: 6xHN, C-terminal (pET6HN-C vector); label: 5' 6-FAM; blunt", "data": [{"binder": "Probe_proCHS (dsDNA) DNA 1: TTTGAAGGCAAGTGATGTAAAGTGCTAAGTGTTAAGTCAATGATTATAT DNA 2: ATATAATCATTGACTTAACACTTAGCACTTTACATCACTTGCCTTCAAA", "values": [{"measurement": "binding result", "result": "binds"}]}, {"binder": "Probe_proGLIP (dsDNA) DNA 1: CCTGACAGTTGCTATTTAGTGCTGTCTACTTGTTTAGTTGTGGAGCAAATGACT DNA 2: AGTCATTTGCTCCACAACTAAACAAGTAGACAGCACTAAATAGCAACTGTCAGG", "values": [{"measurement": "binding result", "result": "binds"}]}]}
